Measured values taken from patent publication US20230074436A1 (DENALI THERAPEUTICS, published 2023).
No end group written: not given here. *: point of attachment. Biotin = O=C1N[C@H]2[C@H](CS[C@H]2CCCCC(=O)*)N1

Tests used:
[1] = biological target: T1, asyn_113-127 (human); assay: Ala-scan peptide ELISA, row A, run 1
T1 construct: also called pep1
T1 peptide: Biotin-LEDMPVDPDNEAYEM
Description: (§1) 96-well Nunc plates were coated with 50 μL per well of 1 μg/mL streptavidin (from Jackson Immuno Research Laboratory) in PBS at 4° C. overnight. The plates were washed three times with PBST, and blocked with PBS containing 3% BSA at room temperature for 1 hour. The N-terminal biotinylated peptides were dissolved in Milli Q water to a concentration of 2 mg/mL, then further diluted to a concentration of 2 μg/mL with PBS. 50 μl of the diluted peptide was applied to the streptavidin-coated plates and incubated at 4° C. overnight. 2 μg/mL of biotinylated human alpha-synuclein was used as the positive control. The plates were washed three times with PBST before use. Purified antibody was diluted by serial dilution methods, from 20 μg/mL to 1 ng/mL, and 50 μL of the antibody solution was added to the peptide-coated wells. The plates were incubated for 1 hour at room temperature, then washed three times with PBST. Secondary detection antibody (goat anti-rat HRP (obtained from Southern Biotech)) was added with 1:5,000 dilutions and incubated for 1 hour at room temperature, then washed three times with PBST. Plates were developed with 50 μL/well of TMB substrate (Thermo Fisher) and quenched with 50 μL/well of 1 N sulfuric acid. The signal was quantified on a BioTek® plate reader at A450. A parallel repeat was performed for each peptide in a separate plate.

[2] = biological target: T2, asyn_113-127_113A (human); assay: Ala-scan peptide ELISA, row A, run 1
T2 construct: substitution is already in the entry; also called pep2
T2 peptide: Biotin-AEDMPVDPDNEAYEM
Description: as §1

[3] = biological target: T3, asyn_113-127_114A (human); assay: Ala-scan peptide ELISA, row A, run 1
T3 construct: substitution is already in the entry; also called pep3
T3 peptide: Biotin-LADMPVDPDNEAYEM
Description: as §1

[4] = biological target: T4, asyn_113-127_115A (human); assay: Ala-scan peptide ELISA, row A, run 1
T4 construct: substitution is already in the entry; also called pep4
T4 peptide: Biotin-LEAMPVDPDNEAYEM
Description: as §1

[5] = biological target: T5, asyn_113-127_116A (human); assay: Ala-scan peptide ELISA, row A, run 1
T5 construct: substitution is already in the entry; also called pep5
T5 peptide: Biotin-LEDAPVDPDNEAYEM
Description: as §1

[6] = biological target: T6, asyn_113-127_117A (human); assay: Ala-scan peptide ELISA, row A, run 1
T6 construct: substitution is already in the entry; also called pep6
T6 peptide: Biotin-LEDMAVDPDNEAYEM
Description: as §1

[7] = biological target: T7, asyn_113-127_118A (human); assay: Ala-scan peptide ELISA, row A, run 1
T7 construct: substitution is already in the entry; also called pep7
T7 peptide: Biotin-LEDMPADPDNEAYEM
Description: as §1

[8] = biological target: T8, asyn_113-127_119A (human); assay: Ala-scan peptide ELISA, row A, run 1
T8 construct: substitution is already in the entry; also called pep8
T8 peptide: Biotin-LEDMPVAPDNEAYEM
Description: as §1

[9] = biological target: T9, asyn_113-127_120A (human); assay: Ala-scan peptide ELISA, row A, run 1
T9 construct: substitution is already in the entry; also called pep9
T9 peptide: Biotin-LEDMPVDADNEAYEM
Description: as §1

[10] = biological target: T10, asyn_113-127_121A (human); assay: Ala-scan peptide ELISA, row A, run 1
T10 construct: substitution is already in the entry; also called pep10
T10 peptide: Biotin-LEDMPVDPANEAYEM
Description: as §1

[11] = biological target: T11, asyn_113-127_122A (human); assay: Ala-scan peptide ELISA, row A, run 1
T11 construct: substitution is already in the entry; also called pep11
T11 peptide: Biotin-LEDMPVDPDAEAYEM
Description: as §1

[12] = biological target: T12, asyn_113-127_123A (human); assay: Ala-scan peptide ELISA, row A, run 1
T12 construct: substitution is already in the entry; also called pep12
T12 peptide: Biotin-LEDMPVDPDNAAYEM
Description: as §1

[13] = biological target: T13, asyn_113-127_124G (human); assay: Ala-scan peptide ELISA, row A, run 1
T13 construct: substitution is already in the entry; also called pep13
T13 peptide: Biotin-LEDMPVDPDNEGYEM
Description: as §1

[14] = biological target: T14, asyn_113-127_124P (human); assay: Ala-scan peptide ELISA, row A, run 1
T14 construct: substitution is already in the entry; also called pep14
T14 peptide: Biotin-LEDMPVDPDNEPYEM
Description: as §1

[15] = biological target: T15, asyn_113-127_125A (human); assay: Ala-scan peptide ELISA, row A, run 1
T15 construct: substitution is already in the entry; also called pep15
T15 peptide: Biotin-LEDMPVDPDNEAAEM
Description: as §1

[16] = biological target: T16, asyn_113-127_126A (human); assay: Ala-scan peptide ELISA, row A, run 1
T16 construct: substitution is already in the entry; also called pep16
T16 peptide: Biotin-LEDMPVDPDNEAYAM
Description: as §1

[17] = biological target: T17, asyn_113-127_127A (human); assay: Ala-scan peptide ELISA, row A, run 1
T17 construct: substitution is already in the entry; also called pep17
T17 peptide: Biotin-LEDMPVDPDNEAYEA
Description: as §1

[18] = biological target: T18, biotinylated human alpha-synuclein (human, UniProt P37840 1-140); assay: Ala-scan peptide ELISA, row A, run 1
Description: as §1

[19] = biological target: T1, asyn_113-127; assay: Ala-scan peptide ELISA, row B, run 2
Description: as §1

[20] = biological target: T2, asyn_113-127_113A; assay: Ala-scan peptide ELISA, row B, run 2
Description: as §1

[21] = biological target: T3, asyn_113-127_114A; assay: Ala-scan peptide ELISA, row B, run 2
Description: as §1

[22] = biological target: T4, asyn_113-127_115A; assay: Ala-scan peptide ELISA, row B, run 2
Description: as §1

[23] = biological target: T5, asyn_113-127_116A; assay: Ala-scan peptide ELISA, row B, run 2
Description: as §1

[24] = biological target: T6, asyn_113-127_117A; assay: Ala-scan peptide ELISA, row B, run 2
Description: as §1

[25] = biological target: T7, asyn_113-127_118A; assay: Ala-scan peptide ELISA, row B, run 2
Description: as §1

[26] = biological target: T8, asyn_113-127_119A; assay: Ala-scan peptide ELISA, row B, run 2
Description: as §1

[27] = biological target: T9, asyn_113-127_120A; assay: Ala-scan peptide ELISA, row B, run 2
Description: as §1

[28] = biological target: T10, asyn_113-127_121A; assay: Ala-scan peptide ELISA, row B, run 2
Description: as §1

[29] = biological target: T11, asyn_113-127_122A; assay: Ala-scan peptide ELISA, row B, run 2
Description: as §1

[30] = biological target: T12, asyn_113-127_123A; assay: Ala-scan peptide ELISA, row B, run 2
Description: as §1

[31] = biological target: T13, asyn_113-127_124G; assay: Ala-scan peptide ELISA, row B, run 2
Description: as §1

[32] = biological target: T14, asyn_113-127_124P; assay: Ala-scan peptide ELISA, row B, run 2
Description: as §1

[33] = biological target: T15, asyn_113-127_125A; assay: Ala-scan peptide ELISA, row B, run 2
Description: as §1

[34] = biological target: T16, asyn_113-127_126A; assay: Ala-scan peptide ELISA, row B, run 2
Description: as §1

[35] = biological target: T17, asyn_113-127_127A; assay: Ala-scan peptide ELISA, row B, run 2
Description: as §1

[36] = biological target: T18, biotinylated human alpha-synuclein; assay: Ala-scan peptide ELISA, row B, run 2
Description: as §1

B1: 20H4 (antibody, rat IgG2b, V domains shown)
VH: AVQLVESGGGLVQPKESLKISCAASGFTFSNAAMYWVRQAPGKGLELLARIRTKPNNYATYHADSVKGRFTISRDDSQSMVYLHMGNLKTEDTAMYYCTADMATGDYWGPGVMVTVSS
VL: DIQMTQSPPVLSVSVGDRVTLSCKASQNINKNLDWYQQKHGEAPKPLIYSTNNLQTGVPSRFSGSGSGTDYTLTISSLQPEDVATYYCYQYKSAWTFGGGTKLELR
notes: also called clone 20H4; rat 20H4
- A450 [1]: 0.545 OD
- A450 [2]: 0.529 OD
- A450 [3]: 0.505 OD
- A450 [4]: 0.502 OD
- A450 [5]: 0.524 OD
- A450 [6]: 0.55 OD
- A450 [7]: 0.504 OD
- A450 [8]: 0.063 OD
- A450 [9]: 0.414 OD
- A450 [10]: 0.496 OD
- A450 [11]: 0.06 OD
- A450 [12]: 0.533 OD
- A450 [13]: 0.371 OD
- A450 [14]: 0.055 OD
- A450 [15]: 0.053 OD
- A450 [16]: 0.371 OD
- A450 [17]: 0.338 OD
- A450 [18]: 0.66 OD
- A450 [19]: 0.394 OD
- A450 [20]: 0.407 OD
- A450 [21]: 0.387 OD
- A450 [22]: 0.387 OD
- A450 [23]: 0.433 OD
- A450 [24]: 0.459 OD
- A450 [25]: 0.382 OD
- A450 [26]: 0.056 OD
- A450 [27]: 0.24 OD
- A450 [28]: 0.317 OD
- A450 [29]: 0.06 OD
- A450 [30]: 0.378 OD
- A450 [31]: 0.326 OD
- A450 [32]: 0.058 OD
- A450 [33]: 0.057 OD
- A450 [34]: 0.392 OD
- A450 [35]: 0.429 OD
- A450 [36]: 0.931 OD
